Assay results reported in paper PMC3817407.
Several values for one entry are separate records, joined by “and”; a condition that tells them apart may be missing. Equal values may be shown once.

B1: AS01_3473 (protein)
chain: MSNYDNAELLALWLEGKLTPKQRDEFEQRCIQDSQFAEQVDAAAMVKIGADDYSSSEVPQWNKAATFEPQQANNSGSWLSGVSLVTSALAIVLVLTGTQVTTSEGELRIRFGSGQSEQALVKLVDSKLDAFKQNQQDAFTLYAQTLQQQQSESASQLTNYLLSSSRKERREDFAELIKFVNQQRSDDQLFYARQLNQLQQDVYHDATGVALESIQQ
B2: AS03_1198 (protein)
chain: MDKDFDFDNIGKRTPYRTPDNFFEETQRKILERTVDEQRKKRRLKRIIPTVIAVAAVLAGILFTPSLRYMNTDTPSASNILAVDKNNVTTDPVDKWIKELSDEELEELVSFSENDIFLN
B3: AS15_524 (protein)
chain: MNFGVEDMIEHVPMEDKRKGAAALDEARLRQQAIGVKLRQMFDEVVNEPVPDEFLAILRKAERPAGGE
B4: AS11_987 (protein)
chain: MNKHPDNNLLEAYASGSIDAVSGLVVATHLETCSKCRAYVNQVEASQANTVSESPSEYSPEFDDMLNDIINAEPVNDNVVIQDTAFVNVAGKSFELPKTLVRFSDLVGSWRSYGGKVFSAQIDLGEDARVSLMYIGENVQIPQHTHRGLESTLVLHGGFSDEDGQYEEGDLMVRDASVKHSPFTQEGEDCLCLTVLTEPMIFTQGVARIFNLFGKGLYP
B5: AS03_1244 (protein)
chain: MKQFDPDVNIRPKEDSIRHYSVPDDYFASFTDKLMAQIPAVKEENTVVVPSVALWPKLRPLLYLAASFLLMIGMFKAFSLFGVGSDTGRTTSTSAGLVALDHGDTRWSEDTDYRDFLHDNCAETVSDEWVLTDFSE
B6: AS14_1324 (protein)
chain: MSGSRPEPEGHLAEQHLGDRLSALVDGELGHDARERVLAHVATCPKCKAEVDAQRRLKNVFAEAAPPAPSESFLARLQGLPGGGDSDGGGSPFSGLPGGFGASAASGVFGPRRDERFEFDYVPAGSHTPVLPSATSGRGFRIHEVGRHESDRSASRGLRFAFAAAGAVSLAAIALGGVTLGTPDTTTEARGSGSGSNVTPLRTPGSAAATGSESQRRRTAGPLLGQGQRALGDLPVASTTASAPLLPGMPAPAGGDARQQAVRALTTPVTAGAAAMSPLIRPLEAVPPLSLSSWSAAPEVRPPGLLAAPDPAPSPYPAASPAASSSPLR
B7: AS04_1609 (protein)
chain: MNRTTEQRNAEVMKTIGLLDQMPRVEVDHLFRVRLMQRIEAMEVKKTSWSALPGGAFNPRLAFMALLLMLNIASALMLFMHGTPQATGSSGAIAESLTEDYGGPALSYYDDQTTIDR
B8: AS15_436 (protein)
chain: MAQSTEPKASPQEATAKGGDNTKGKSRKELQQQIDENLRRVYEEALVQEVPDRFAMLLDQLRQKGTGK

Columns and labels:
ECF02_2817 = molecular target: T1, ECF02_2817
T1 chain: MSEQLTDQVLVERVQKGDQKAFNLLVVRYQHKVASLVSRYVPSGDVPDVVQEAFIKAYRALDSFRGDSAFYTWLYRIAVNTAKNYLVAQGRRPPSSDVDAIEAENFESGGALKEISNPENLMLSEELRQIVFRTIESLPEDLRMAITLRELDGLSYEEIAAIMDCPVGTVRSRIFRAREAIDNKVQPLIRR

ECF03_1198 = molecular target: T2, ECF03_1198
T2 chain: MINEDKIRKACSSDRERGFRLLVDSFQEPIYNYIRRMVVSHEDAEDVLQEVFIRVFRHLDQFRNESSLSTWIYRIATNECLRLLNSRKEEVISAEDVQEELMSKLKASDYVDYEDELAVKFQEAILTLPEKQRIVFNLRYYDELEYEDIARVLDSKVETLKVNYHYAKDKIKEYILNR

ECF14_3200 = molecular target: T3, ECF14_3200
T3 chain: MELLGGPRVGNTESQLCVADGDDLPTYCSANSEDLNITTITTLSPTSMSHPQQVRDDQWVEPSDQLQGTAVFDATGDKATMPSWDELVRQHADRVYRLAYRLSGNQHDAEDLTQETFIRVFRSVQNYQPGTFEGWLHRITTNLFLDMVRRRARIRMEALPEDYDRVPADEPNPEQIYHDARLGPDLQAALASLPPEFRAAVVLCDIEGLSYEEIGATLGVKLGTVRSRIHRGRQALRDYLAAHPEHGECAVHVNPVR

ECF16_973 = molecular target: T4, ECF16_973
T4 chain: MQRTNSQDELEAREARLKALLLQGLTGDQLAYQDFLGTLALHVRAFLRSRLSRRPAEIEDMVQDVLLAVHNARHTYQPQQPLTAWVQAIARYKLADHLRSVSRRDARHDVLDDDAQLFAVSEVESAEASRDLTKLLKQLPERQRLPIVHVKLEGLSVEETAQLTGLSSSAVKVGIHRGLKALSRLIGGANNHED

ECF17_1458 = molecular target: T5, ECF17_1458
T5 chain: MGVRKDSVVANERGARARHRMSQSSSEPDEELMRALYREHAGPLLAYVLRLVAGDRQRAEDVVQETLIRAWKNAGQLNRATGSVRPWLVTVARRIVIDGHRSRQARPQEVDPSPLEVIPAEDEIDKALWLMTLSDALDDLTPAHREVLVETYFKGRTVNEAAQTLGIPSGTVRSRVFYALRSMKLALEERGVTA

ECF20_992 = molecular target: T6, ECF20_992
T6 chain: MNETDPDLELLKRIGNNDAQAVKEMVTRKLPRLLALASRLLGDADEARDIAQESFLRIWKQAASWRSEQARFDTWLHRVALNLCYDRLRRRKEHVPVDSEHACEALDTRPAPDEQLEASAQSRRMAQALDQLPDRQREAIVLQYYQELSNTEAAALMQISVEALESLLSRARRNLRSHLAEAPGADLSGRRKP

ECF25_1643 = molecular target: T7, ECF25_1643
T7 chain: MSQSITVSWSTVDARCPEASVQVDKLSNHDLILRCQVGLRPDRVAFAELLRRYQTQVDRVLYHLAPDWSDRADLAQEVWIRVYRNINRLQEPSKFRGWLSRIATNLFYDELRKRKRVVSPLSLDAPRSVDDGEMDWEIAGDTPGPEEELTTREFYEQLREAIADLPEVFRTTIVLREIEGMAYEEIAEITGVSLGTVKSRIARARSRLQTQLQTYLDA

ECF27_4265 = molecular target: T8, ECF27_4265
T8 chain: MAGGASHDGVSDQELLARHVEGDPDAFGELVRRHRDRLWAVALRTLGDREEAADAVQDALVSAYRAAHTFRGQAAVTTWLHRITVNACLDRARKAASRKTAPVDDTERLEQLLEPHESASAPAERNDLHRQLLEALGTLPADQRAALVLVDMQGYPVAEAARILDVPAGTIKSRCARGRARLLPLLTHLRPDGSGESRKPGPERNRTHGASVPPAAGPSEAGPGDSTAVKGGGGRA

ECF28_1040 = molecular target: T9, ECF28_1040
T9 chain: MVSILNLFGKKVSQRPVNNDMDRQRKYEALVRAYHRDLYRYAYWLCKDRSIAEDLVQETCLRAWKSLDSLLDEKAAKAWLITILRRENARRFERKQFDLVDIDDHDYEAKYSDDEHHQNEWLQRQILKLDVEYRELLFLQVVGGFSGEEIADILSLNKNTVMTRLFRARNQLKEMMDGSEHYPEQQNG

ECF28_1088 = molecular target: T10, ECF28_1088
T10 chain: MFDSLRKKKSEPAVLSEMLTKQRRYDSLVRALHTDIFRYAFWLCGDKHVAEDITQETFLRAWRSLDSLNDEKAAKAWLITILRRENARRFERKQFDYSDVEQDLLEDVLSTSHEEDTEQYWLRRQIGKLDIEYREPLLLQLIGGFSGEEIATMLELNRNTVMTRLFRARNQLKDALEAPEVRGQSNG

ECF30_35 = molecular target: T11, ECF30_35
T11 chain: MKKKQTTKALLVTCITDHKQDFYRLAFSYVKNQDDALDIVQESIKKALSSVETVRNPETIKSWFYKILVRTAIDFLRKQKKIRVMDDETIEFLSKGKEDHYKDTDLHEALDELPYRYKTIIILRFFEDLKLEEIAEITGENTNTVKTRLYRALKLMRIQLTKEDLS

ECF31_34 = molecular target: T12, ECF31_34
T12 chain: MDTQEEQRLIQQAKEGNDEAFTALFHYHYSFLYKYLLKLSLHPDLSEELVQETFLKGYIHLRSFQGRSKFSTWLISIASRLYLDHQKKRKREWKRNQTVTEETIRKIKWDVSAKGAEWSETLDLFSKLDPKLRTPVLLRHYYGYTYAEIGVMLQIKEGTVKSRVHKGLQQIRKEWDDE

ECF33_423 = molecular target: T13, ECF33_423
T13 chain: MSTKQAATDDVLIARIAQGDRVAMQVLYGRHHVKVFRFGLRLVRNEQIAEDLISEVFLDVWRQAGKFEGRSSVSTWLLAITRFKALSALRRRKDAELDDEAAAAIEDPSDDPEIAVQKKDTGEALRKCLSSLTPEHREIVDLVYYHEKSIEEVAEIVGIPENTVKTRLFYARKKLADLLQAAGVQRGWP

| Binder | fold repression (ECF02_2817) | fold repression (ECF03_1198) | fold repression (ECF14_3200) | fold repression (ECF16_973) | fold repression (ECF17_1458) | fold repression (ECF20_992) | fold repression (ECF25_1643) | fold repression (ECF27_1331) | fold repression (ECF27_4265) | fold repression (ECF28_1040) | fold repression (ECF28_1088) | fold repression (ECF30_35) | fold repression (ECF31_34) | fold repression (ECF33_423) |
| --- | --- | --- | --- | --- | --- | --- | --- | --- | --- | --- | --- | --- | --- | --- |
| B1 | 2.1 | 1.5 | 2.06 | 1.49 | 1.83 | 2.52 | 1.37 and 1.13 | 3.09 | 1.92 | 2.3 | 1.59 | 1.56 | 1.97 | 1.1 |
| B2 | 1.85 | 45.8 | 0.974 | 1.49 | 0.894 | 0.888 | 0.95 and 0.944 | 1.42 | 0.852 | 1.23 | 1.24 | 1.17 | 1.12 | 0.857 |
| B3 | 2.65 | 3.92 | 12.9 | 4.98 | 9.33 | 5.56 | 2.89 and 3.07 | 11.5 | 4.51 | 4.67 | 3.64 | 5.98 | 6.57 | 6.68 |
| B4 | 3.07 | 2.32 | 2.94 | 2.76 | 2.13 | 3.26 | 2.1 and 1.71 | 3.06 | 2.05 | 2.02 | 1.97 | 2.89 | 2.53 | 2.38 |
| B5 | 1.96 | 2.13 | 2.19 | 1.79 | 1.62 | 1.93 | 1.23 and 1.24 | 2.14 | 1.61 | 1.68 | 1.36 | 1.54 | 1.92 | 1.65 |
| B6 | 2.97 | 3.58 | 35.5 | 4.45 | 7.16 | 6.81 | 3.84 and 3.33 | 8.27 | 2.31 | 4.3 | 3.46 | 3.36 | 5.28 | 4.28 |
| B7 | 2.53 | 6.14 | 4.47 | 6.3 | 3.13 | 7.41 | 1.05 and 1.18 | 2.31 | 3.11 | 1.03 | 0.742 | 1.99 | 3.92 | 3.53 |
| B8 | 1.58 | 3.84 | 9.47 | 3.01 | 5.96 | 1.95 | 1.19 and 1.27 | 4.82 | 2.89 | 4.28 | 2.98 | 2.1 | 3.29 | 3.04 |
